This is an account of results in patent publication US20210221894A1.

The target in the assay is recombinant human DLL3 (ELISA coat) (human) (UniProt Q9NYJ7). Kind of assay: ELISA, plate coated with recombinant human DLL3 0.5 µg/ml; commercial reagent mAb.
Sequence of recombinant human DLL3 (ELISA coat) (human) (Q9NYJ7 27-492 limits assumed): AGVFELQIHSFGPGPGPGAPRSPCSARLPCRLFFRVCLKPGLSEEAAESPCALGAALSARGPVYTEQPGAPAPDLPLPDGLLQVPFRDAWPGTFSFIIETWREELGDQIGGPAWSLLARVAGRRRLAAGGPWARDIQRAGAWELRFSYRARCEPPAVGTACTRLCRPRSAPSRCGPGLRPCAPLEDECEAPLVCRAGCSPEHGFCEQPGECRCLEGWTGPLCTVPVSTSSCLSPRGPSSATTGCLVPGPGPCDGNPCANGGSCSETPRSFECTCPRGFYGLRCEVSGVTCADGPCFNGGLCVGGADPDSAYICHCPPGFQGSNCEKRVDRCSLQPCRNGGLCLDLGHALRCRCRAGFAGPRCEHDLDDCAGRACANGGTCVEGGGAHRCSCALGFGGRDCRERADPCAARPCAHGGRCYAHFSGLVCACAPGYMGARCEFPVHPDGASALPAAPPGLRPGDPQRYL

The term EC50 denotes the concentration that produces a half-maximal response. As to “positive control antibody for DLL3 (R&D Systems, Minneapolis, Minn., Cat #MAB4315)”, the EC50 amounted to 0.1 nM.
